{
  "source": "patent US20220153864A1",
  "about": "(Pieris, published 2022)",
  "binders": {"B1": {"name": "fusion protein SEQ ID NOs: 87 and 82 (bispecific antibody, human IgG4 S228P, kappa, F234A L235A)", "heavy": "not shown", "light": "DVVMTQSPLSLPVTPGEPASISCRSSQSLVHSNRNTYLHWYLQKPGQSPQLLIYKVSNRFSGVPDRFSGSGSGTDFTLKISRVEAEDVGVYYCSQNTHVPPTFGQGTKLEIKRTVAAPSVFIFPPSDEQLKSGTASVVCLLNNFYPREAKVQWKVDNALQSGNSQESVTEQDSKDSTYSLSSTLTLSKADYEKHKVYACEVTHQGLSSPVTKSFNRGEC", "notes": "also called exemplary fusion protein"}},
  "key": {"[1]": {"target": "T1, recombinant human GPC3 (huGPC3) (R&D Systems) (human, UniProt P51654 25-559)", "T1 construct": "also called biotinylated huGPC3", "T1 sequence (P51654 25-559 limits assumed)": "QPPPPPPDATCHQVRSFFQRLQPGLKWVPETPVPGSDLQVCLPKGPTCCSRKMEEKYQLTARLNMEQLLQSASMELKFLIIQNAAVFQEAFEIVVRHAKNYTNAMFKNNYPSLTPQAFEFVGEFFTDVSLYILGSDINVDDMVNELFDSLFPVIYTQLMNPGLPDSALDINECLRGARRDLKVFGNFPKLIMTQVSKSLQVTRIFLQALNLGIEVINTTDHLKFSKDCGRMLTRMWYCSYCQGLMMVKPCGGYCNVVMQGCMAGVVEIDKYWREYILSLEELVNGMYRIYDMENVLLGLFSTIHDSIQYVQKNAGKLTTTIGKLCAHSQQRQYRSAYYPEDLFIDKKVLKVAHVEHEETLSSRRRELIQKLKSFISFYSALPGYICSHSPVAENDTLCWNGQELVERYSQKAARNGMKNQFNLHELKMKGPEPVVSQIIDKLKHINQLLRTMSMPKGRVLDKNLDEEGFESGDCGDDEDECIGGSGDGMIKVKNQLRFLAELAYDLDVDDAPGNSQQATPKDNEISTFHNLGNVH", "assay": "dual-binding ELISA: huGPC3 coated, fusion titrated, detection with biotinylated huCD137-His", "experimental": "(§1) Recombinant huCD137-His (R&D Systems) in PBS (1 μg/mL) was coated overnight on microtiter plates at 4° C. The plates were washed five times after each incubation step with 100 μL PBS-0.05% T. The plates were blocked with PBS-0.1% T-2% BSA for 1 h at room temperature and subsequently washed again. Different concentrations of tested fusion proteins were added to the wells and incubated for 1 h at room temperature, followed by a wash step. Subsequently, biotinylated huGPC3 was added at a constant concentration of 1 μg/mL in PBS-0.1% T-2% BSA for 1 h. After washing, a 1:5000 dilution of ExtrAvidin-HRP (Sigma-Aldrich) in PBS-0.1% T-2% BSA was added to the wells and incubated for 1 h. After an additional wash step, fluorogenic HRP substrate (QuantaBlu, Thermo) was added to each well, and the fluorescence intensity was detected using a fluorescence microplate reader.\nThe dual binding of fusion proteins was also tested with a reverse set-up where recombinant huGPC3 (R&D Systems) was coated on microtiter plates at 1 μg/ml and the bound fusion proteins were detected via the addition of 5 μg/mL biotinylated huCD137-His.\n(§2) Exemplary dual binding data are shown in FIG. 3, together with the fit curves resulting from a 1:1 sigmoidal binding fit, where the EC₅₀ value and the maximum signal were free parameters, and the slope was fixed to unity."}, "[2]": {"target": "T2, huCD137-His (recombinant human CD137 with C-terminal polyhistidine tag, R&D Systems) (human, UniProt Q07011 24-186)", "T2 construct": "also called biotinylated huCD137-His; not shown: C-terminal polyhistidine tag", "assay": "ELISA, huCD137-His coated, detection anti-NGAL-HRP", "experimental": "Recombinant huGPC3 (R&D Systems) at the concentration of 1 μg/mL in PBS was coated overnight on microtiter plates at 4° C. After five washes with 100 μL PBS-0.05% T (PBS supplemented with 0.05% (v/v) Tween 20), the plates were blocked with 2% BSA (w/v) in PBS-0.1% T (PBS-0.1% T-2% BSA) for 1 h at room temperature. After washing with 100 μL PBS-0.05% T (PBS supplemented with 0.05% (v/v) Tween 20) five times, exemplary fusion proteins (SEQ ID NOs: 87 and […] and CD137Ac1-Fusion 1 to 7) or the GPC3 antibody as include in the fusion proteins (SEQ ID NOs: 81 and 82) at different concentrations were added to the wells and incubated for 1 h at room temperature, followed by another wash step. Bound molecules under study were detected by incubation with 1:5000 diluted anti-human IgG Fc-HRP (Jackson Laboratory) in PBS-0.1% T-2% BSA. After an additional wash step, fluorogenic HRP substrate (QuantaBlu, Thermo) was added to each well and the fluorescence intensity was detected using a fluorescence microplate reader.\nThe same ELISA setup was also employed to determine the binding potency of fusion proteins to cynomolgus GPC3 and huCD137, where recombinant cyGPC3 (R&D Systems) or huCD137-His (recombinant human CD137 with C-terminal polyhistidine tag, R&D Systems) was instead coated on a microtiter plate. The testing agents were similarly titrated and bound agents were detected via anti-NGAL-HRP. […]"}, "[3]": {"target": "T1, recombinant human GPC3 (huGPC3) (R&D …)", "assay": "SPR (Biacore T200), binder captured by anti-human IgG Fc, huGPC3 as analyte, 1:1 model", "experimental": "The anti-human IgG Fc antibody (GE Healthcare) was immobilized on a CM5 sensor chip using standard amine chemistry: the carboxyl groups on the chip were activated using 1-ethyl-3-(3-dimethylaminopropyl)-carbodiimide (EDC) and N-hydroxysuccinimide (NHS). Subsequently, anti-human IgG Fc antibody solution (GE Healthcare) at a concentration of 25 μg/mL in 10 mM sodium acetate (pH 5.0) was applied at a flow rate of 5 μL/min until an immobilization level of 6000-10000 resonance units (RU) was achieved. Residual non-reacted NHS-esters were blocked by passing a solution of 1M ethanolamine across the surface. The reference channel was treated in an analogous manner. Subsequently, testing fusion proteins (SEQ ID NOs: 87 and 82 and CD137Ac1-Fusion 1) or the GPC3 antibody as included in the fusion protein (SEQ ID NOs: 81 and 82) at 0.2 μg/ml in HBS-EP+ buffer was captured by the anti-human IgG-Fc antibody at the chip surface for 180 s at a flow rate of 10 μL/min. After each capture step, the needle was washed.\nThe binding assay was carried out with a contact time of 180 s, a dissociation time of 900 s, and a flow rate of 30 μL/min. After each injection, the needle was cleaned with 40 mM NaOH+20% isopropanol. All measurements were performed at 25° C. […] Prior to the protein measurements, three startup cycles were performed for conditioning purposes. Data were evaluated with Biacore T200 Evaluation software (v2.0). Double referencing was used and the 1:1 binding model was used to fit the raw data."}, "[4]": {"target": "T2, huCD137-His (recombinant human CD137 …)", "assay": "dual-binding ELISA: huCD137-His coated, fusion titrated, detection with biotinylated huGPC3", "experimental": "as §1, §2"}, "[5]": {"target": "T3, human GPC3 expressed on cells (SK-Hep1::huGPC3; HepG2, Hep3B and MKN-45 tumor cells) (human, UniProt P51654 25-554)", "T3 construct": "whole, on cells; also called GPC3-positive tumor cells; human GPC3-expressing cells", "T3 sequence (P51654 25-554 limits assumed)": "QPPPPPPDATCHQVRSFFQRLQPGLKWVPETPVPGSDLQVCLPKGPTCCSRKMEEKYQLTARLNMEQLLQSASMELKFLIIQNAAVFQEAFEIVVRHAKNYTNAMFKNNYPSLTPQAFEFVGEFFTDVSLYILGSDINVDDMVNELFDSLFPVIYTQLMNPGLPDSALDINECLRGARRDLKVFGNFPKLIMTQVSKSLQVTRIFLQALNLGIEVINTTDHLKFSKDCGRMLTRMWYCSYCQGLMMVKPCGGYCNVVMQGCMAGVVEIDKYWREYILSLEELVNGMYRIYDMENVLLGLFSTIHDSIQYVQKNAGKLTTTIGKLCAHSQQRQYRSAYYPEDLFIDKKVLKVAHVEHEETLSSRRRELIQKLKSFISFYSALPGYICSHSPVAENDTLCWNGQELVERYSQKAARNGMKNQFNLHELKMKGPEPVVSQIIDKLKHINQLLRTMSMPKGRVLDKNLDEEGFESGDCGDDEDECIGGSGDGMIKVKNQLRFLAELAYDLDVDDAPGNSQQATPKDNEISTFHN", "assay": "flow cytometry on SK-Hep1::huGPC3 cells, anti-human IgG detection", "experimental": "For flow cytometric analysis, respective cell lines were incubated with an exemplary fusion protein (SEQ ID NOs: 87 and 82), the GPC3 antibody or the CD137 specific lipocalin mutein (Fc fusion) as included in the fusion protein (SEQ ID NOs: 81 and 82 and SEQ ID NO: 98, respectively), a reference CD137 antibody SEQ ID NOs: 26 and 27, or an isotype control (SEQ ID NOs: 24 and 25) and detected using a fluorescently labeled anti-human IgG antibody in FACS analysis as described in the following:\n5×10⁴ cells per well were incubated for 1 h in ice-cold PBS containing 5% fetal calf serum (PBS-FCS). A dilution series of the testing molecule were added to the cells and incubated for 1 h on ice. Cells were washed twice with PBS and then incubated with a goat anti-hlgG Alexa647-labeled antibody or goat anti-hlgG Alexa488-labeled antibody for 30 min on ice. Cells were subsequently washed and analyzed using iQue Flow cytometer (Intellicyte Screener). Mean geometric fluorescent signals were plotted and fitted with Graphpad software. The geometric means of the fluorescence intensity were used to calculate EC₅₀ values using a four-parameter logistic regression with bottom fixed to background."}},
  "data": [
    {"binder": "B1", "values": [
      {"measurement": "EC50", "setting": "[1]", "result": 0.98, "unit": "nM"},
      {"measurement": "EC50", "setting": "[2]", "result": 0.52, "unit": "nM"},
      {"measurement": "Kd", "setting": "[3]", "result": 0.657, "unit": "nM"},
      {"measurement": "koff", "setting": "[3]", "result": 0.000269, "unit": "s⁻¹"},
      {"measurement": "kon", "setting": "[3]", "result": 409000, "unit": "M⁻¹ s⁻¹"},
      {"measurement": "EC50", "setting": "[4]", "result": 4.2, "unit": "nM"},
      {"measurement": "EC50", "setting": "[5]", "result": 23.2, "unit": "nM"}
    ]}
  ]
}
